The values that follow come from publication PMC3297588.

This experiment addresses holo-hemoglobin (UniProt P01966). Description: SPR. In general terms: In SPR one partner is held on a chip, and binding of the other changes the refractive index at the surface.
UniProt P01966, sequence (P01966 whole entry, chain 1 of 2): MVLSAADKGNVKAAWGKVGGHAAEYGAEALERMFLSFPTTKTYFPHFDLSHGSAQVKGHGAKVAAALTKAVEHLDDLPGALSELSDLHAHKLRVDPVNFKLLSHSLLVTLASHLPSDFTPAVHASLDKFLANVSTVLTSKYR
UniProt P01966, sequence (P02070 whole entry, chain 2 of 2, further chain): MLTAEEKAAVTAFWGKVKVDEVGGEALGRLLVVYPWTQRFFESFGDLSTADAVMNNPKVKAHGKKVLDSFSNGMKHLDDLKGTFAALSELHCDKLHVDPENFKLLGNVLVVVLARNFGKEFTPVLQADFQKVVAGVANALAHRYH

In the case of “IsdX1 (amino acids 26-146), wild-type, apo form (domain or fragment)”, the Kd (in general, a measure of binding affinity in units of concentration) was 15 nM.
